These results are taken from publication PMC3672029 (BMC Structural Biology, 2013).

The data set concerns the molecule itself. Kind of data set: crystal structure; Se-Met MJ0391 (28 mg/mL), sitting-drop vapor diffusion at 293 K, 50%(v/v) PEG-400, 0.1 M MES pH 6.0; MAD, refined at 2.3 Å; two NCS molecules in the asymmetric unit, tetramer generated by the crystallographic 2-fold axis.

B1: hypothetical protein MJ0391 from Methanocaldococcus jannaschii (putative CbiT) (enzyme, Methanocaldococcus jannaschii DSM 2661)
chain: MKYMIPDEEFIRREGVPITKEEIRAVSIGKLNLNKDDVVVDVGCGSGGMTVEIAKRCKFVYAIDYLDGAIEVTKQNLAKFNIKNCQIIKGRAEDVLDKLEFNKAFIGGTKNIEKIIEILDKKKINHIVANTIVLENAAKIINEFESRGYNVDAVNVFISYAKKIPSGHMFLAKNPITIIKAVR
modifications: selenomethionine in place of methionine (Se-Met protein; Mse4 and Mse169 are printed)
notes: MJ0391 protein, putative CbiT (cobalt-precorrin-7 C15-methyltransferase / C12-decarboxylase), Methanocaldococcus jannaschii DSM 2661; gene amplified from genomic DNA and cloned into pET-21a; 183 amino acid residues and 21 kDa per monomer; residues 1-3 are not seen in the final model
A word on the stoichiometry N: it is the number of molecules, sites or subunits per partner or assembly. With B1, the “stoichiometry N” value is 4.
